Source: the supplement of paper PMC10065799, “High-throughput profiling of sequence recognition by tyrosine kinases and SH2 domains using bacterial peptide display” (eLife, 2023)

Key:
[1] = system: AncSZ; assay: phosphorylation enrichment, bacterial display (enrichment ratio); higher = better substrate or ligand; peptides without Tyr show the background
[2] = molecular target: EPHB1 (UniProt P54762); assay: as above
[3] = molecular target: EPHB2 (UniProt P29323); assay: as above
[4] = molecular target: FGFR1 (UniProt P11362); assay: as above
Chain of FGFR1 (P11362 whole entry, looked up): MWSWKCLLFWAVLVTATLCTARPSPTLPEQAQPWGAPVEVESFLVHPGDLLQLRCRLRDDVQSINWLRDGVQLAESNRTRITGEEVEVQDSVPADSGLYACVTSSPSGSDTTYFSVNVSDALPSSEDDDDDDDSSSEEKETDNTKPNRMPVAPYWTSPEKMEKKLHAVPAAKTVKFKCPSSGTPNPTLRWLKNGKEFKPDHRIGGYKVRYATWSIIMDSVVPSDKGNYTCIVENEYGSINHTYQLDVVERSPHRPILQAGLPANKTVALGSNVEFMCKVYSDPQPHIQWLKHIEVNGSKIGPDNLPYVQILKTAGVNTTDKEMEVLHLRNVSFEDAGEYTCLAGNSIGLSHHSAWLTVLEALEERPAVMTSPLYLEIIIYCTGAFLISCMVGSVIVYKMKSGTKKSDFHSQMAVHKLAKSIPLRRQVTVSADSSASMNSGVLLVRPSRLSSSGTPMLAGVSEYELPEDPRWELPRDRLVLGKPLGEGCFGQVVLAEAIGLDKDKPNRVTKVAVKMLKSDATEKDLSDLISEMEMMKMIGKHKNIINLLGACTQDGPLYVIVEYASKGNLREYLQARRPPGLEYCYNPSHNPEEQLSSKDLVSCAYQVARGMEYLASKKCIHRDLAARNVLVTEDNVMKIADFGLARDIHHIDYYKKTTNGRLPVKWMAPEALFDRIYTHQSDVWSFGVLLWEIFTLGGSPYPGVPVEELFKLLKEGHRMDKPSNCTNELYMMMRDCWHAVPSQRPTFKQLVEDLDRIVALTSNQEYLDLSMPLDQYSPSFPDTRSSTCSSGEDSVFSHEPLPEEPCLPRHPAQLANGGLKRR

[5] = molecular target: FGFR3 (UniProt P22607); assay: as above
Chain of FGFR3 (P22607 whole entry, looked up): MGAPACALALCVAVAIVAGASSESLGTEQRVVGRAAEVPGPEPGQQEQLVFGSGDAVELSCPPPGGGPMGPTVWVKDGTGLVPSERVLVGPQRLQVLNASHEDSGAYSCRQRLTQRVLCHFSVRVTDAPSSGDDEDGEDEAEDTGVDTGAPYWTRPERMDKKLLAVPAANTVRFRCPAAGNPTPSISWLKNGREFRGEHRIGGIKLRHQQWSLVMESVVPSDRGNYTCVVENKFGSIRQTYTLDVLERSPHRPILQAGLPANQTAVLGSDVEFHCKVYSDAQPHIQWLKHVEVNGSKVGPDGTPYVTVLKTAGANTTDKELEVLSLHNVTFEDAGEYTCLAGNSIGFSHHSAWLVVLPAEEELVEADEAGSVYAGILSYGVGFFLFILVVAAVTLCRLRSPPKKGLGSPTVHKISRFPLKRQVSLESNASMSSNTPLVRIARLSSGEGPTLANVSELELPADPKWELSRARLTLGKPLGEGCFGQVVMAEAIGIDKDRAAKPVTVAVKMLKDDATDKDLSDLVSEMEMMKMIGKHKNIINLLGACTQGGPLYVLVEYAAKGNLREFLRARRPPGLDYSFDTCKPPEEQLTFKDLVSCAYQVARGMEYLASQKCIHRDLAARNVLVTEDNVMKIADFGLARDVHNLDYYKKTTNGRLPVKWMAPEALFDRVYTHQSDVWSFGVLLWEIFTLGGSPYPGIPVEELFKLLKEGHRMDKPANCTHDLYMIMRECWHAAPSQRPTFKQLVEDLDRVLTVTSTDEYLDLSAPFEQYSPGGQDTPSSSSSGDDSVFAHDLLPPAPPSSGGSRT

[6] = system: Fer (mouse); assay: as above
[7] = molecular target: Fes (UniProt P07332); assay: as above
[8] = molecular target: Fyn (UniProt P06241); assay: as above
[9] = molecular target: Hck (UniProt P08631); assay: as above
[10] = molecular target: Jak2 (UniProt O60674); assay: as above
Chain of Jak2 (O60674 whole entry, looked up): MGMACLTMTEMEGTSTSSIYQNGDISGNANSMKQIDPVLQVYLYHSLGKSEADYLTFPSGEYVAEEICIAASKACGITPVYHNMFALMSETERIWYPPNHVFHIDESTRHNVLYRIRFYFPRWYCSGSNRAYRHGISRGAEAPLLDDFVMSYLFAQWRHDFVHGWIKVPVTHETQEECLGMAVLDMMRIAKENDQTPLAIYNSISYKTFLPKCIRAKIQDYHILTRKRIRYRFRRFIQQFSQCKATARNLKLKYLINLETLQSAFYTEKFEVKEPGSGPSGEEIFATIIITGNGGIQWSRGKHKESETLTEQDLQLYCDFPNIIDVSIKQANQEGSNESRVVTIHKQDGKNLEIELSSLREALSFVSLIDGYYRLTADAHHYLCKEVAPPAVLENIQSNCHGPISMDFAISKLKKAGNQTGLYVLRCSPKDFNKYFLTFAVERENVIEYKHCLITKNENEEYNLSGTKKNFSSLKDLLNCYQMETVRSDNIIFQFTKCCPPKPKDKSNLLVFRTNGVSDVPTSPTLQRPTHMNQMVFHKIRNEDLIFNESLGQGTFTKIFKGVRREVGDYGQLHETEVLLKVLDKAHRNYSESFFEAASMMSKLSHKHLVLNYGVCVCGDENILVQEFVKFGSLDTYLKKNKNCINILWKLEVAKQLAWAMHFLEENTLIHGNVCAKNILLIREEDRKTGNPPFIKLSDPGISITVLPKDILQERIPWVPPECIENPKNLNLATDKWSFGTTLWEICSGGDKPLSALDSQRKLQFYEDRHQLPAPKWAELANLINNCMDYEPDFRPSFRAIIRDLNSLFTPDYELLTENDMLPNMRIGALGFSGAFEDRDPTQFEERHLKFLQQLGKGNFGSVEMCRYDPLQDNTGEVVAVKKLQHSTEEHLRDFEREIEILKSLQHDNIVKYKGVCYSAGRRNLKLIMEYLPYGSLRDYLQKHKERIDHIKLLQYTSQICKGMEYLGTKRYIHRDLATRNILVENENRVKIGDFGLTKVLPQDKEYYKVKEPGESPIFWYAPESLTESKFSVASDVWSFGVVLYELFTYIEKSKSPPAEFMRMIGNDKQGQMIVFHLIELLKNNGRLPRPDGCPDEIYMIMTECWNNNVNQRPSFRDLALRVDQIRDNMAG

[11] = molecular target: MERTK (UniProt Q12866); assay: as above
Chain of MERTK (Q12866 whole entry, looked up): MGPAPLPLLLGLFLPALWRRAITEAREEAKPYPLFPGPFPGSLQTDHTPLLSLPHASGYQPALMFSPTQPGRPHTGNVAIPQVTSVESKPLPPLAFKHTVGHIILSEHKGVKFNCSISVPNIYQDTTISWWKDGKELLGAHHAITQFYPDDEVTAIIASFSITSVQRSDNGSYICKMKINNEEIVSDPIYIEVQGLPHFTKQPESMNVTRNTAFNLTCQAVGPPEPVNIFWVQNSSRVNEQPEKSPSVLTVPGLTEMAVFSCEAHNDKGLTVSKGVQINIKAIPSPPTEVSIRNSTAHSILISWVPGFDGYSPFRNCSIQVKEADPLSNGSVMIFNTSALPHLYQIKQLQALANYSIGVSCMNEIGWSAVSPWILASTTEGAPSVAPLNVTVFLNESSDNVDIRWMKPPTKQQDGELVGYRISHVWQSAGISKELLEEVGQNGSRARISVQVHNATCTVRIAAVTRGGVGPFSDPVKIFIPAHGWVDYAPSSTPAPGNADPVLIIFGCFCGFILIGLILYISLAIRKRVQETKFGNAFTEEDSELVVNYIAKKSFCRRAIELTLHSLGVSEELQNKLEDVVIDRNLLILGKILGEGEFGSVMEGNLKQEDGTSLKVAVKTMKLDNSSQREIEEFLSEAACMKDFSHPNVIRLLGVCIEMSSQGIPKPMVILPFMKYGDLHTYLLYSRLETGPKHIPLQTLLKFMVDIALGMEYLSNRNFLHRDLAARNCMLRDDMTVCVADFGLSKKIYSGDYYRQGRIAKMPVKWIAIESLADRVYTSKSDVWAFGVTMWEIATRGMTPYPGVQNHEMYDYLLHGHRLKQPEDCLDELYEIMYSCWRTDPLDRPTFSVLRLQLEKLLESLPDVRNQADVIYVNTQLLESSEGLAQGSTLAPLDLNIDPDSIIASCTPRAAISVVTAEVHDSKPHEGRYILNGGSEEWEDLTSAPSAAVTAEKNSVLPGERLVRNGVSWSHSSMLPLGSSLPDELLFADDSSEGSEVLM

[12] = system: c-Abl (mouse); assay: as above
[13] = system: c-Src; assay: as above
[14] = molecular target: Grb2 SH2 (UniProt P62993); assay: SH2 binding enrichment of the phosphorylated peptide, bacterial display (enrichment ratio); higher = better substrate or ligand; peptides without Tyr show the background
Chain of Grb2 SH2 (P62993 whole entry, looked up): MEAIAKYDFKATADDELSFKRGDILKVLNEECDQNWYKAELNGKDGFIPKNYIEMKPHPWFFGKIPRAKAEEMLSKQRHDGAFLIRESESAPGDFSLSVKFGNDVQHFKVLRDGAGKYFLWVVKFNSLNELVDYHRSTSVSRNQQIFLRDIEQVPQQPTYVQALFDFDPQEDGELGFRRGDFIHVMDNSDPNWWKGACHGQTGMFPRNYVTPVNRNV

[15] = molecular target: SHP2-C SH2; assay: as above
[16] = molecular target: c-Src SH2; assay: as above
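Wherever SH2 binding enrichment of the phosphorylated peptide, bacterial display is given: peptide library displayed on the E. coli surface as eCPX fusions, selected cells deep-sequenced, score is each peptide's frequency after selection divided by its frequency in the input.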
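Wherever phosphorylation enrichment, bacterial display is given: 11-residue human phosphosite peptides and single-mutation variants displayed on the E. coli surface, counted by deep sequencing, each peptide's frequency after selection divided by its frequency in the unselected input library; frequency after pTyr selection over input frequency; kinase dosed for 20-30% of maximal phosphorylation in three min.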

Chain of EPHB1 (P54762 whole entry, looked up): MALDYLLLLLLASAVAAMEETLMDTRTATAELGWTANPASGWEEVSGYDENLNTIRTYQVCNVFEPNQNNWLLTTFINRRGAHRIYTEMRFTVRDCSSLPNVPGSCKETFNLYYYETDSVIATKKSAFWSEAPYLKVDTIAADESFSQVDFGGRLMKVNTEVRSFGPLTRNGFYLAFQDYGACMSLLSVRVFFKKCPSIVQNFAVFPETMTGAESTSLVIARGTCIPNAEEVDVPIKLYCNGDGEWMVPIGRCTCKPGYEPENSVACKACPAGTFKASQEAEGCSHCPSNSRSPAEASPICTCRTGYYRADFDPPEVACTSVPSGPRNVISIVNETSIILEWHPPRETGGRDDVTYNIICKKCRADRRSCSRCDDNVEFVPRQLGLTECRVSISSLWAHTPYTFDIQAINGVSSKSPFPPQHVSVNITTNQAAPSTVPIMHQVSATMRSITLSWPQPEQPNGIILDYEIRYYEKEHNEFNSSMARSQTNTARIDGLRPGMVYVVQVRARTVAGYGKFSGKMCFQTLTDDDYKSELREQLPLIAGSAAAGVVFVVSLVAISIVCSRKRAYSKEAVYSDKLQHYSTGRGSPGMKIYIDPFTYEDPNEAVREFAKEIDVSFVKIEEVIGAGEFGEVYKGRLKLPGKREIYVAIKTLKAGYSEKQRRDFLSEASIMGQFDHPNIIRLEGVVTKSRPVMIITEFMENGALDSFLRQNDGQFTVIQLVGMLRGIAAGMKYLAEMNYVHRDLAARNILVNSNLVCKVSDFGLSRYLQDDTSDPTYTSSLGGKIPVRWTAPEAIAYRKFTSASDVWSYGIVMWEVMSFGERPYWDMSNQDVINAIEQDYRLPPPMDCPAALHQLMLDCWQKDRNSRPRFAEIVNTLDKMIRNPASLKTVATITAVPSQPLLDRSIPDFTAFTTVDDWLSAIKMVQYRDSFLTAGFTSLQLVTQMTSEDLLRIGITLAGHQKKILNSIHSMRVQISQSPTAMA

Sequence | phosphorylation enrichment [1] | phosphorylation enrichment [2] | phosphorylation enrichment [3] | phosphorylation enrichment [4] | phosphorylation enrichment [5] | phosphorylation enrichment [6] | phosphorylation enrichment [7] | phosphorylation enrichment [8] | phosphorylation enrichment [9] | phosphorylation enrichment [10] | phosphorylation enrichment [11] | phosphorylation enrichment [12] | phosphorylation enrichment [13] | SH2 binding enrichment [14] | SH2 binding enrichment [15] | SH2 binding enrichment [16]
EEGNPYYSGAR [MCCC2_Y520_S523G] | 0.898 | 0.409 | 0.551 | 0.542 | 0.552 | 0.425 | 0.917 | 0.959 | 1.01 | 0.719 | 0.449 | 0.597 | 1.83 | 0.9 | 0.538 | 0.714
EEGRVYVYHLS [ITGAE_Y549_R552H] | 1.13 | 0.576 | 0.491 | 0.58 | 0.75 | 0.756 | 1.22 | 0.64 | 0.519 | 0.998 | 0.449 | 0.713 | 0.828 | 0.701 | 0.897 | 0.438
EEQKKNFNAMK [SCN5A_Y1494_Y1494N_YF] | 0.908 | 0.381 | 0.494 | 0.38 | 0.546 | 0.369 | 0.711 | 0.376 | 0.512 | 0.691 | 0.409 | 0.607 | 0.385 | 0.895 | 0.644 | 0.474
EEVGIYRMSGV [BCR_Y1089_V1091M] | 0.925 | 0.55 | 0.502 | 0.556 | 0.612 | 0.535 | 0.921 | 6.38 | 5.64 | 1.12 | 0.647 | 9.58 | 6.23 | 0.744 | 0.957 | 0.431
EEVKAYLDFRE [CHAC2_Y78] | 1.2 | 0.652 | 0.765 | 0.584 | 0.865 | 0.651 | 1.44 | 0.605 | 0.601 | 1.35 | 0.524 | 0.867 | 0.59 | 0.651 | 0.556 | 0.33
EFLQKYKGFKI [SYNE1_Y6953_YF] | 0.773 | 0.372 | 0.477 | 0.393 | 0.491 | 0.433 | 0.752 | 0.376 | 0.411 | 0.775 | 0.395 | 0.549 | 0.397 | 0.95 | 0.732 | 0.346
EFNLMYDGAKE [IRF6_Y97_T100A] | 1.35 | 0.593 | 0.576 | 0.652 | 0.845 | 0.593 | 1.29 | 0.594 | 0.702 | 1.13 | 0.517 | 0.857 | 0.584 | 0.965 | 0.684 | 0.626
EHEALYLEADL [CENPF_Y1920] | 1.66 | 0.57 | 0.84 | 1.73 | 1.8 | 1.2 | 1.34 | 0.653 | 0.715 | 1.12 | 0.77 | 0.938 | 0.986 | 0.845 | 0.56 | 0.57
EIIPFYGMSSF [FNDC3B_Y175_T179S_YF] | 1.06 | 0.764 | 0.916 | 0.497 | 0.786 | 1.46 | 0.995 | 1.06 | 1.15 | 0.772 | 1.54 | 0.865 | 0.822 | 0.652 | 0.592 | 4.4
EIVFVYVKKRS [DNAI2_Y7_YF] | 0.995 | 0.373 | 0.476 | 0.498 | 0.467 | 0.593 | 1.05 | 0.341 | 0.456 | 1.34 | 0.296 | 0.585 | 0.386 | 0.995 | 0.833 | 0.516
EKMWTYMRSAE [GRIA4_Y695] | 1.04 | 0.573 | 0.62 | 0.409 | 0.602 | 0.359 | 1.01 | 0.433 | 0.432 | 0.836 | 0.299 | 0.81 | 0.404 | 0.842 | 0.726 | 0.442
EKSREYDRLFE [PIK3R1_Y463_YF] | 0.929 | 0.457 | 0.602 | 0.434 | 0.577 | 0.437 | 0.993 | 0.448 | 0.522 | 0.935 | 0.453 | 0.784 | 0.5 | 0.809 | 0.991 | 13.5
ELTAKYLNFFR [P3H4_Y181_Q186R_YF] | 0.684 | 0.414 | 0.425 | 0.394 | 0.513 | 0.335 | 0.778 | 0.444 | 0.456 | 0.632 | 0.435 | 0.574 | 0.366 | 2.78 | 1.14 | 0.832
ELTAKYLNYYQ [P3H4_Y181] | 0.781 | 0.705 | 0.642 | 0.683 | 0.71 | 0.445 | 0.802 | 0.407 | 0.493 | 0.715 | 0.977 | 0.564 | 0.492 | 2.21 | 1.03 | 1.38
ENAGFYFQVSA | 1.08 | 0.483 | 0.493 | 0.416 | 0.721 | 0.474 | 1.15 | 0.329 | 0.304 | 1.3 | 0.333 | 0.797 | 0.347 | 0.629 | 0.658 | 0.537
ENELTYFCCKK [CD59_Y86_YF] | 1.32 | 0.465 | 0.543 | 0.867 | 0.711 | 0.478 | 1.04 | 1.08 | 1.18 | 2.65 | 0.703 | 0.737 | 2.21 | 0.975 | 0.935 | 0.711
ENGPYYTSYPP [GDAP2_Y488] | 1.31 | 0.658 | 1 | 2.7 | 1.89 | 0.707 | 0.83 | 3.58 | 2.14 | 0.703 | 5.54 | 1.33 | 3.52 | 0.761 | 0.708 | 0.763

Sequence | phosphorylation enrichment [1] | phosphorylation enrichment [2] | phosphorylation enrichment [3] | phosphorylation enrichment [4] | phosphorylation enrichment [5] | phosphorylation enrichment [6] | phosphorylation enrichment [7] | phosphorylation enrichment [8] | phosphorylation enrichment [9] | phosphorylation enrichment [10] | phosphorylation enrichment [11] | phosphorylation enrichment [12] | phosphorylation enrichment [13] | SH2 binding enrichment [14] | SH2 binding enrichment [15] | SH2 binding enrichment [16]
ENPLDYGSAWA [AR_Y395] | 0.992 | 0.46 | 0.565 | 0.491 | 0.744 | 0.524 | 1.08 | 0.527 | 0.559 | 0.991 | 0.395 | 0.709 | 0.476 | 0.716 | 0.806 | 0.454
ENQEIYRKAFD [KPNA1_Y493_Q494R] | 0.883 | 0.618 | 0.798 | 0.537 | 0.627 | 0.55 | 1.13 | 0.431 | 0.499 | 1.3 | 0.393 | 0.812 | 0.451 | 0.814 | 0.719 | 0.397
EPAVLYNLKDR [MYH7_Y103] | 0.722 | 0.411 | 0.537 | 0.521 | 0.539 | 0.455 | 0.835 | 0.583 | 0.662 | 0.585 | 0.473 | 0.571 | 0.461 | 0.774 | 0.867 | 0.374
EPVSDYINANV [PTPN11_Y304_I309V] | 1.03 | 0.42 | 0.486 | 0.541 | 0.585 | 0.384 | 0.855 | 0.393 | 0.428 | 0.754 | 0.4 | 0.567 | 0.37 | 1.14 | 0.676 | 0.466
EQKRYYNAMKK [SCN5A_Y1495_K1493R] | 0.586 | 0.356 | 0.317 | 0.348 | 0.465 | 0.399 | 0.576 | 0.457 | 0.312 | 0.605 | 0.547 | 0.447 | 0.371 | 1.05 | 0.899 | 1.19
EQLGEYKFQNA [ALB_Y425] | 0.824 | 0.461 | 0.415 | 0.471 | 0.5 | 0.351 | 0.77 | 0.394 | 0.415 | 0.715 | 0.324 | 0.774 | 0.367 | 0.793 | 0.416 | 0.518
EQSNPYMVLDI [ROCK2_Y1197] | 1.19 | 0.577 | 0.616 | 1.11 | 1.1 | 3.79 | 1.09 | 2.5 | 1.38 | 1.24 | 2.28 | 0.737 | 3.73 | 0.923 | 0.654 | 0.72
EQYELHCEMGS [CBL_Y371_Y371H] | 1.33 | 0.682 | 0.63 | 0.538 | 0.818 | 0.915 | 1.18 | 0.491 | 0.498 | 1.03 | 0.476 | 0.82 | 0.61 | 0.815 | 0.859 | 0.611
ERFSYYGMKAV [SLC15A2_Y61] | 0.993 | 0.477 | 0.658 | 4.94 | 4.31 | 0.386 | 0.767 | 0.8 | 1.37 | 4.66 | 0.9 | 0.578 | 1.4 | 0.877 | 0.85 | 0.978
ERLLDYTRTVQ [INPP5E_Y439] | 0.945 | 0.663 | 0.451 | 0.518 | 0.665 | 0.544 | 1.06 | 0.495 | 0.439 | 1.06 | 0.365 | 0.853 | 0.493 | 0.777 | 0.584 | 0.39
ERSMSYSDESR [SMG1_Y143] | 0.887 | 0.541 | 0.541 | 0.537 | 0.63 | 0.485 | 0.912 | 0.463 | 0.456 | 0.876 | 0.489 | 0.905 | 0.538 | 0.881 | 0.714 | 0.715
ERTIEYLEEVA [HADHA_Y239] | 1.28 | 0.593 | 0.704 | 0.608 | 0.845 | 0.663 | 1.35 | 0.722 | 0.622 | 1.2 | 0.541 | 0.863 | 0.521 | 0.774 | 0.637 | 0.513
ESFRLYPPVPQ [CYP4B1_Y377] | 0.62 | 0.416 | 0.477 | 0.342 | 0.491 | 0.378 | 0.704 | 0.457 | 0.415 | 0.536 | 0.404 | 0.553 | 0.391 | 0.829 | 0.713 | 0.464
ESKAGYRVPRS [CLDN7_Y195] | 0.543 | 0.303 | 0.327 | 0.305 | 0.352 | 0.52 | 0.583 | 0.369 | 0.416 | 0.524 | 0.339 | 0.681 | 0.43 | 0.83 | 0.699 | 0.544
ESLRRYLENGK [HLA-B_Y195_W191S] | 0.629 | 0.431 | 0.362 | 0.397 | 0.45 | 0.454 | 0.629 | 0.384 | 0.461 | 0.519 | 0.392 | 0.548 | 0.34 | 0.813 | 0.473 | 0.436
ESMNTYLQTSP [NAT1_Y208] | 1 | 0.584 | 0.511 | 0.584 | 0.664 | 0.539 | 0.947 | 0.469 | 0.655 | 0.825 | 0.412 | 0.693 | 0.477 | 0.642 | 0.795 | 0.471
